PMC7536822, “Implications for tetraspanin-enriched microdomain assembly based on structures of CD9 with EWI-F” (Life Science Alliance, 2020)
Where a chain is given by its changes, count along the chain named.

T1: endogenous CD9 on HeLa cells (human (endogenous in HeLa), UniProt P21926 1-228)
T1 chain: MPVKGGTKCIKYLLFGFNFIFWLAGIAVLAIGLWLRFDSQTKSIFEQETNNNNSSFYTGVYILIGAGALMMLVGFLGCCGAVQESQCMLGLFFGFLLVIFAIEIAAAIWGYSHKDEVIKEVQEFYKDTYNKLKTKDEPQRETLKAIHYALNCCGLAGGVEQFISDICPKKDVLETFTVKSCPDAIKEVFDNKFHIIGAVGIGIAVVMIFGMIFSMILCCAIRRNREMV

T2: detergent-purified, full-length CD9 (wtCD9-3xSTREP) (human, UniProt P21926 1-228)
T2 chain: T1 chain

T3: full-length EWI-F (human, UniProt Q9P2B2 26-879)
T3 construct: human EWI-F, full length, UniprotKB Q9P2B2; All EWI-F constructs were cloned with an N-terminal cystatin signal peptide; Heterogeneously glycosylated; also called CD9-partner 1; prostaglandin F2 receptor negative regulator; source: HEK293-EBNA cells, co-transfected with Strep3-GFP-CD9-W6; in lysate, co-purified (Strep-Tactin, SEC)
T3 sequence (looked up): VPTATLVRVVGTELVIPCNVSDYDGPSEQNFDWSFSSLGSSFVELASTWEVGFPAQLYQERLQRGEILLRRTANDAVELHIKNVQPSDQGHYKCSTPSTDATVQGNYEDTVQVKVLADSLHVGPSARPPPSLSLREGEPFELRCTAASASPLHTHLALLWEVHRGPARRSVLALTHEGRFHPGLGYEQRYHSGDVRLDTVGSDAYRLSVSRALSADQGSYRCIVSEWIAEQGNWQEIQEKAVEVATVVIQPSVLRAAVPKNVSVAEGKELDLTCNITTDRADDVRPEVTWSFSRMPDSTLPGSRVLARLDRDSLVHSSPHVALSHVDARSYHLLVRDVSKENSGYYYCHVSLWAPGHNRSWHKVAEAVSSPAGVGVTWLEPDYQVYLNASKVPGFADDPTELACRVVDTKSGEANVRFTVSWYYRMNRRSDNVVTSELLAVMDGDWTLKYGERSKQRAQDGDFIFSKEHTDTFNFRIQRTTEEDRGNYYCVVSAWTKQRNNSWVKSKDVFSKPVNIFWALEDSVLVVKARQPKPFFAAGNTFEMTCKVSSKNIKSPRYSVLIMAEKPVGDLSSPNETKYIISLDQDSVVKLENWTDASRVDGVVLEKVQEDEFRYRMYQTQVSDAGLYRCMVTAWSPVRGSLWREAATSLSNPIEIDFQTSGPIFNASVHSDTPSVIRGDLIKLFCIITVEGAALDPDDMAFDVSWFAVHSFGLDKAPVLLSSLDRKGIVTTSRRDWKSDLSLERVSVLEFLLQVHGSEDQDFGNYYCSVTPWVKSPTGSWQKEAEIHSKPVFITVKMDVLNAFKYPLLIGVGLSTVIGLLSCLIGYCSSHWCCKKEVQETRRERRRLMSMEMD

B1: anti-CD9 nanobody 4E8 (VHH)
VHH: EVQLVESGGRLVRTGGSLRLSCAASGRTFSNYVMGWFRQAPGKEREVVAAITWSGDITWHADFVKGRFTISRDNAKNTVYLQMNSLKPEDTAVYYCAATERWGLRAPADWGSWGQGTQVTVSS
notes: they are in the deposited structure PDB 6Z1V (nanobody chain of CD9EC2-4E8); Differs from 4C8 in CDR2 and CDR3; The thrombin-cleavable tag was not removed before crystallization; also called Nb 4E8; source: E. coli BL-21 Codon Plus (DE3)-RIL, periplasmic secretion, purified (HisTrap, desalting); not shown: His6, C-terminal, kept
B2: anti-CD9 nanobody 4C8 (VHH)
VHH: EVQLVESGGGLVQAGGSLRLSCAASGRTFSDYVMGWFRQAPGKERTFVARIGWSGDLTYYADSVKGRFTISRDNAKNTVYLQMNSLKPEDTAIYYCAADERWGTGGKFDYWGQGTQVTVSS
notes: they are in the deposited structures PDB 6Z1Z (4C8 alone) and PDB 6Z20 (nanobody chain of CD9EC2-4C8); Selected from a phage library (Neviani et al, 2020); The thrombin-cleavable His tag was removed with thrombin; also called Nb 4C8; source: E. coli BL-21 Codon Plus (DE3)-RIL, periplasmic secretion, purified (HisTrap, desalting; thrombin treatment, Superdex75); not shown: His6, C-terminal, cleaved
B3: N-Strep3-GFP-tagged CD9-W6 (natural protein, human, UniProt P21926 1-228, looked up)
chain: T1 chain with C9W, C78W, C79W, C87W, C218W, C219W
notes: human CD9 (Tspan29), full length, all palmitoylated cysteines mutated to tryptophan (CD9-W6); The Strep3-GFP tag is followed by a TEV-protease site; The results speak only of 'Strep-GFP-tagged CD9'; the methods name CD9-W6 for these experiments; also called Strep-GFP-tagged CD9; source: HEK293-EBNA cells, co-transfected with EWI-F variants; in lysate (DDM or DDM/digitonin), Strep-Tactin purified, …

Key:
[1] = target: T1, endogenous CD9 on HeLa cells; assay: apparent, on HeLa cells
[2] = target: T2, detergent-purified, full-length CD9 …; assay: ELISA; apparent, detergent-purified CD9
[3] = target: T4, detergent-purified, full-length CD9 (wtCD9-3xSTREP) (human, UniProt P21926); assay: ELISA; 100 ng wtCD9-3Strep captured on Strep-Tactin coated wells; serial dilutions of nanobody for 2 h at rt in 2% BSA, 25 mM Hepes pH 7.5, 150 mM NaCl, 0.025% DDM; detection with anti-VHH and IRDye800CW; triplicate; apparent KD by one-site specific binding fit; settings: both partners purified
T4 construct: human CD9 (Tspan29), wild type, full length; The construct section lists full-length CD9 with an N-terminal Strep-II tag or an N-terminal Strep3-GFP tag with a TEV site; also called wtCD9-3Strep; source: detergent-purified

[4] = target: T5, endogenous CD9 on HeLa cells (human (endogenous in HeLa), UniProt P21926); assay: binding assay on cells in 96-well plates, infrared fluorescence read-out (anti-VHH, IRDye800CW, Odyssey); HeLa cells seeded in 96-well plates, serial dilutions of nanobody for 2 h at 4°C in 1% BSA, 25 mM Hepes pH 7.2 in DMEM; cells fixed with 4% formaldehyde before detection; triplicate; apparent KD by one-site specific binding fit; settings: one partner purified
T5 construct: CD9 (Tspan29) endogenous on HeLa cells; also called CD9 endogenously expressed on HeLa cells; cell-membrane embedded CD9; source: endogenous, on HeLa cells

[5] = target: T6, CD9–EWI-F_(ΔIg1-5) complex (human, UniProt P21926;Q9P2B2); assay: SEC; purified, EndoHF-treated CD9–EWI-F_(ΔIg1-5) complex incubated with a large excess of 4C8, Superdex 200 10/300 increase in 50 mM Tris pH 7.8, 150 mM NaCl, 0.08% digitonin, 4°C; SDS-PAGE of the peak; settings: both partners purified
T6 construct: human CD9 (Tspan29), wild type, full length; as m12; human EWI-F, residues T685-D879, UniprotKB Q9P2B2; as m11; Preformed complex to which 4C8 was added; source: HEK293-EBNA GNT1- cells, co-expressed, co-purified in digitonin (Strep-Tactin), EndoHF treated; not shown: Strep-II, N-terminal, kept; copies: 2 + 2

full-length EWI-F = target: T3, full-length EWI-F; assay: pull-down; Strep3-GFP-CD9-W6 co-transfected with EWI-F variants in 25 ml HEK293-EBNA cultures; lysis in 1% DDM, 0.5% digitonin; Strep-Tactin resin, washes in 0.08% digitonin, elution with desthiobiotin; SDS-PAGE; settings: partners not purified

| Binder | Kd [1] [nM] | Kd [2] [nM] | binding result [3] | binding result [4] | binding result [5] | binding result (full-length EWI-F) |
| --- | --- | --- | --- | --- | --- | --- |
| B1 | 32.6 | 2.01 | binds | binds |  |  |
| B2 | 0.59 | 0.9 | binds | binds | binds |  |
| B3 |  |  |  |  |  | binds |
